Laboratory results published in paper PMC9352680, “A comprehensive thermodynamic model for RNA binding by the Saccharomyces cerevisiae Pumilio protein PUF4”.

biological target: T1, PUF4 RNA-binding domain (Saccharomyces cerevisiae, UniProt P25339 537-888); test: Mg; RNA-MaP; 20 mM Na-HEPES pH 7.4, 30 mM KOAc, 0.75 mM MgCl2, 0.1% Tween-20, 5% glycerol, 0.1 mg/mL BSA, 2 mM DTT; 25 C; 0.0125-409.6 nM protein; conditions: tags: N-His6-TEV cleaved; C-SNAP kept, Cy3B-labelled; label: tethered on chip by stalled RNA polymerase
T1 sequence: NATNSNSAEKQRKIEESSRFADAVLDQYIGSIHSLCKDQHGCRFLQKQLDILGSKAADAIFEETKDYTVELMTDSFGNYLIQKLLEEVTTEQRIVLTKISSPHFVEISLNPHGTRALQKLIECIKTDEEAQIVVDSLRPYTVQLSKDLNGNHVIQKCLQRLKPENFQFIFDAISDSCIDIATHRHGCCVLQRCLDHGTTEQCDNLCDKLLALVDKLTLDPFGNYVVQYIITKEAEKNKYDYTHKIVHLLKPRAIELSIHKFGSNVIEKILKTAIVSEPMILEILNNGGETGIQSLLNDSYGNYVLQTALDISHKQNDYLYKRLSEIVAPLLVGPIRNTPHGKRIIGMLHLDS

Binder	Kd [nM]
UCUCUUAGUGUAUAUAAAUCUCUU (ssRNA) [Id_ii_S1_P3E.2_K3.1_C3.2_[C-2A]_[T-1G]_H3.1_A3.1_F3.1_T3.2_[T9A]]	14.1
UCUCUUCGUGUAUAUAAAUCUCUU (ssRNA) [Id_ii_S1_P3E.2_K3.1_C3.2_[T-1G]_H3.1_A3.1_F3.1_T3.2_[T9A]]	11.9
UCUCUUAUUGUAUAUAGCUCUCUU (ssRNA) [Id_ii_S1_P3E.2_K3.1_C3.2_[C-2A]_H3.1_A3.1_F3.1_T3.2_[T9G]_[A10C]]	12.1
UCUCUUUCUCUAUUAUCUCUU (ssRNA) [Ib_S1_P4E.1_K4.1_C4.1_H4.1_[G2C]_[A4C]_A4.1_F4.1_T4.1]	> 2300
UCUCUUACUGUAUAUAACUCUCUU (ssRNA) [Id_ii_S1_P3E.2_K3.1_C3.2_[C-2A]_[T-1C]_H3.1_A3.1_F3.1_T3.2_[T9A]_[A10C]]	26.7
UCUCUUAUUGUAUAUAGUUCUCUU (ssRNA) [Id_ii_S1_P3E.2_K3.1_C3.2_[C-2A]_H3.1_A3.1_F3.1_T3.2_[T9G]_[A10T]]	6.25
UCUCUUAAUGUAUAUAUGUCUCUU (ssRNA) [Id_ii_S1_P3E.2_K3.1_C3.2_[C-2A]_[T-1A]_H3.1_A3.1_F3.1_T3.2_[A10G]]	12.7
UCUCUUUUUGUAUAUAAAUCUCUU (ssRNA) [Id_ii_S1_P3E.2_K3.1_C3.2_[C-2T]_H3.1_A3.1_F3.1_T3.2_[T9A]]	10.5
UCUCUUACUGUAUAUAAAUCUCUU (ssRNA) [Id_ii_S1_P3E.2_K3.1_C3.2_[C-2A]_[T-1C]_H3.1_A3.1_F3.1_T3.2_[T9A]]	16.3
UCUCUUCGUGUAUAUACCUCUCUU (ssRNA) [Id_ii_S1_P3E.2_K3.1_C3.2_[T-1G]_H3.1_A3.1_F3.1_T3.2_[T9C]_[A10C]]	17.5
UCUCUUAUUGUAUAUAUUUCUCUU (ssRNA) [Id_ii_S1_P3E.2_K3.1_C3.2_[C-2A]_H3.1_A3.1_F3.1_T3.2_[A10T]]	9.49
UCUCUUUUUGUAUAUAUCUCUCUU (ssRNA) [Id_ii_S1_P3E.2_K3.1_C3.2_[C-2T]_H3.1_A3.1_F3.1_T3.2_[A10C]]	7.26
UCUCUUCCUGUAUAUAAGUCUCUU (ssRNA) [Id_ii_S1_P3E.2_K3.1_C3.2_[T-1C]_H3.1_A3.1_F3.1_T3.2_[T9A]_[A10G]]	12.9
UCUCUUACUGUAUAUAGCUCUCUU (ssRNA) [Id_ii_S1_P3E.2_K3.1_C3.2_[C-2A]_[T-1C]_H3.1_A3.1_F3.1_T3.2_[T9G]_[A10C]]	9.36
UCUCUUAUUGUAUAUACCUCUCUU (ssRNA) [Id_ii_S1_P3E.2_K3.1_C3.2_[C-2A]_H3.1_A3.1_F3.1_T3.2_[T9C]_[A10C]]	17.6
UCUCUUAAUGUAUAUAUUUCUCUU (ssRNA) [Id_ii_S1_P3E.2_K3.1_C3.2_[C-2A]_[T-1A]_H3.1_A3.1_F3.1_T3.2_[A10T]]	13.4
UCUCUUACUGUAUAUACAUCUCUU (ssRNA) [Id_ii_S1_P3E.2_K3.1_C3.2_[C-2A]_[T-1C]_H3.1_A3.1_F3.1_T3.2_[T9C]]	22.8
UCUCUUCGUGUAUAUAGUUCUCUU (ssRNA) [Id_ii_S1_P3E.2_K3.1_C3.2_[T-1G]_H3.1_A3.1_F3.1_T3.2_[T9G]_[A10T]]	3.77
UCUCUUAUUGUAUAUACGUCUCUU (ssRNA) [Id_ii_S1_P3E.2_K3.1_C3.2_[C-2A]_H3.1_A3.1_F3.1_T3.2_[T9C]_[A10G]]	26.9
UCUCUUCGUGUAUAUAUAUCUCUU (ssRNA) [Id_ii_S1_P3E.2_K3.1_C3.2_[T-1G]_H3.1_A3.1_F3.1_T3.2]	5.37

Binder	Kd [nM]
UCUCUUAAUGUAUAUACCUCUCUU (ssRNA) [Id_ii_S1_P3E.2_K3.1_C3.2_[C-2A]_[T-1A]_H3.1_A3.1_F3.1_T3.2_[T9C]_[A10C]]	16.5
UCUCUUUGUAUCUUAUCUCUU (ssRNA) [Ic_S1_P4E.1_K4.1_C4.1_H4.1_A4.1_[A6C]_F4.1_T4.1]	4.1
UCUCUUAGUGUAUAUAUGUCUCUU (ssRNA) [Id_ii_S1_P3E.2_K3.1_C3.2_[C-2A]_[T-1G]_H3.1_A3.1_F3.1_T3.2_[A10G]]	11
UCUCUUACUGUAUAUACUUCUCUU (ssRNA) [Id_ii_S1_P3E.2_K3.1_C3.2_[C-2A]_[T-1C]_H3.1_A3.1_F3.1_T3.2_[T9C]_[A10T]]	15
UCUCUUAUUGUAUAUAACUCUCUU (ssRNA) [Id_ii_S1_P3E.2_K3.1_C3.2_[C-2A]_H3.1_A3.1_F3.1_T3.2_[T9A]_[A10C]]	12.9
UCUCUUACUGUAUAUACGUCUCUU (ssRNA) [Id_ii_S1_P3E.2_K3.1_C3.2_[C-2A]_[T-1C]_H3.1_A3.1_F3.1_T3.2_[T9C]_[A10G]]	45.4
UCUCUUCCUGUAUAUACGUCUCUU (ssRNA) [Id_ii_S1_P3E.2_K3.1_C3.2_[T-1C]_H3.1_A3.1_F3.1_T3.2_[T9C]_[A10G]]	17.4
UCUCUUACUGUAUAUAUUUCUCUU (ssRNA) [Id_ii_S1_P3E.2_K3.1_C3.2_[C-2A]_[T-1C]_H3.1_A3.1_F3.1_T3.2_[A10T]]	10.8
UCUCUUCCUGUAUAUAGUUCUCUU (ssRNA) [Id_ii_S1_P3E.2_K3.1_C3.2_[T-1C]_H3.1_A3.1_F3.1_T3.2_[T9G]_[A10T]]	4.07
UCUCUUCCUGUAUAUACUUCUCUU (ssRNA) [Id_ii_S1_P3E.2_K3.1_C3.2_[T-1C]_H3.1_A3.1_F3.1_T3.2_[T9C]_[A10T]]	6.95
UCUCUUCGUGUAUAUAAUUCUCUU (ssRNA) [Id_ii_S1_P3E.2_K3.1_C3.2_[T-1G]_H3.1_A3.1_F3.1_T3.2_[T9A]_[A10T]]	8.53
UCUCUUUAUGUAUUAUCUCUU (ssRNA) [Ib_S1_P4E.1_K4.1_C4.1_H4.1_[G2A]_[A4G]_A4.1_F4.1_T4.1]	36
UCUCUUCGUGUAUAUAUUUCUCUU (ssRNA) [Id_ii_S1_P3E.2_K3.1_C3.2_[T-1G]_H3.1_A3.1_F3.1_T3.2_[A10T]]	8.56
UCUCUUACUGUAUAUAUGUCUCUU (ssRNA) [Id_ii_S1_P3E.2_K3.1_C3.2_[C-2A]_[T-1C]_H3.1_A3.1_F3.1_T3.2_[A10G]]	17.2
UCUCUUAUUGUAUAUACUUCUCUU (ssRNA) [Id_ii_S1_P3E.2_K3.1_C3.2_[C-2A]_H3.1_A3.1_F3.1_T3.2_[T9C]_[A10T]]	10.3
UCUCUUCCUGUAUAUACCUCUCUU (ssRNA) [Id_ii_S1_P3E.2_K3.1_C3.2_[T-1C]_H3.1_A3.1_F3.1_T3.2_[T9C]_[A10C]]	24.3
UCUCUUAUUGUAUAUAUAUCUCUU (ssRNA) [Id_ii_S1_P3E.2_K3.1_C3.2_[C-2A]_H3.1_A3.1_F3.1_T3.2]	4.87
UCUCUUUUUGUAUAUAUAUCUCUU (ssRNA) [Id_ii_S1_P3E.2_K3.1_C3.2_[C-2T]_H3.1_A3.1_F3.1_T3.2]	4.57
UCUCUUCGUGUAUAUAUCUCUCUU (ssRNA) [Id_ii_S1_P3E.2_K3.1_C3.2_[T-1G]_H3.1_A3.1_F3.1_T3.2_[A10C]]	7.58
UCUCUUAGUGUAUAUAUCUCUCUU (ssRNA) [Id_ii_S1_P3E.2_K3.1_C3.2_[C-2A]_[T-1G]_H3.1_A3.1_F3.1_T3.2_[A10C]]	13.4

Binder	Kd [nM]
UCUCUUAGUGUAUAUAAUUCUCUU (ssRNA) [Id_ii_S1_P3E.2_K3.1_C3.2_[C-2A]_[T-1G]_H3.1_A3.1_F3.1_T3.2_[T9A]_[A10T]]	10.1
UCUCUUAAUGUAUAUAUCUCUCUU (ssRNA) [Id_ii_S1_P3E.2_K3.1_C3.2_[C-2A]_[T-1A]_H3.1_A3.1_F3.1_T3.2_[A10C]]	10.4
UCUCUUCCUGUAUAUACAUCUCUU (ssRNA) [Id_ii_S1_P3E.2_K3.1_C3.2_[T-1C]_H3.1_A3.1_F3.1_T3.2_[T9C]]	17.7
UCUCUUACUGUAUAUACCUCUCUU (ssRNA) [Id_ii_S1_P3E.2_K3.1_C3.2_[C-2A]_[T-1C]_H3.1_A3.1_F3.1_T3.2_[T9C]_[A10C]]	11.9
UCUCUUCGUGUAUAUAGGUCUCUU (ssRNA) [Id_ii_S1_P3E.2_K3.1_C3.2_[T-1G]_H3.1_A3.1_F3.1_T3.2_[T9G]_[A10G]]	9.62
UCUCUUAAUGUAUAUAAUUCUCUU (ssRNA) [Id_ii_S1_P3E.2_K3.1_C3.2_[C-2A]_[T-1A]_H3.1_A3.1_F3.1_T3.2_[T9A]_[A10T]]	8.64
UCUCUUUUUGUAUUAUCUCUU (ssRNA) [Ib_S1_P4E.1_K4.1_C4.1_H4.1_[G2T]_[A4G]_A4.1_F4.1_T4.1]	25.7
UCUCUUAUUGUAUAUAUGUCUCUU (ssRNA) [Id_ii_S1_P3E.2_K3.1_C3.2_[C-2A]_H3.1_A3.1_F3.1_T3.2_[A10G]]	12.3
UCUCUUAUUGUAUAUAAUUCUCUU (ssRNA) [Id_ii_S1_P3E.2_K3.1_C3.2_[C-2A]_H3.1_A3.1_F3.1_T3.2_[T9A]_[A10T]]	12.2
UCUCUUAUUGUAUAUAAAUCUCUU (ssRNA) [Id_ii_S1_P3E.2_K3.1_C3.2_[C-2A]_H3.1_A3.1_F3.1_T3.2_[T9A]]	13.9
UCUCUUUUUGUAUAUAUUUCUCUU (ssRNA) [Id_ii_S1_P3E.2_K3.1_C3.2_[C-2T]_H3.1_A3.1_F3.1_T3.2_[A10T]]	6.67
UCUCUUUAUCUAUUAUCUCUU (ssRNA) [Ib_S1_P4E.1_K4.1_C4.1_H4.1_[G2A]_[A4C]_A4.1_F4.1_T4.1]	> 2300
UCUCUUAAUGUAUAUAAAUCUCUU (ssRNA) [Id_ii_S1_P3E.2_K3.1_C3.2_[C-2A]_[T-1A]_H3.1_A3.1_F3.1_T3.2_[T9A]]	20.8
UCUCUUUUUUUAUUAUCUCUU (ssRNA) [Ib_S1_P4E.1_K4.1_C4.1_H4.1_[G2T]_[A4T]_A4.1_F4.1_T4.1]	> 2300
UCUCUUAUUGUAUAUAUCUCUCUU (ssRNA) [Id_ii_S1_P3E.2_K3.1_C3.2_[C-2A]_H3.1_A3.1_F3.1_T3.2_[A10C]]	8.52
UCUCUUACUGUAUAUAUCUCUCUU (ssRNA) [Id_ii_S1_P3E.2_K3.1_C3.2_[C-2A]_[T-1C]_H3.1_A3.1_F3.1_T3.2_[A10C]]	9.47
UCUCUUAGUGUAUAUAUUUCUCUU (ssRNA) [Id_ii_S1_P3E.2_K3.1_C3.2_[C-2A]_[T-1G]_H3.1_A3.1_F3.1_T3.2_[A10T]]	10
UCUCUUAGUGUAUAUAGUUCUCUU (ssRNA) [Id_ii_S1_P3E.2_K3.1_C3.2_[C-2A]_[T-1G]_H3.1_A3.1_F3.1_T3.2_[T9G]_[A10T]]	6.52
